# Assays:
# [1] = biological target: Lag3 on cynomolgus PBMC/T cells (cynomolgus); test: flow cytometry, non-activated cynomolgus PBMC, 10 µg/ml
# [2] = biological target: Lag3 on cynomolgus PBMC/T cells (cynomolgus); test: flow cytometry, CD3/CD28-activated cynomolgus PBMC, 10 µg/ml
# [3] = biological target: Lag3 on Lag3+ NFAT Jurkat effector cells (Promega #CS194801); test: cell-based or functional assay
# [4] = biological target: cynomolgus LAG3 on transiently transfected HEK293F cells (cynomolgus); test: flow cytometry on HEK293F cells transfected with cyno LAG3, 10 µg/ml
# control antibody MDX25F7, sequence (VH): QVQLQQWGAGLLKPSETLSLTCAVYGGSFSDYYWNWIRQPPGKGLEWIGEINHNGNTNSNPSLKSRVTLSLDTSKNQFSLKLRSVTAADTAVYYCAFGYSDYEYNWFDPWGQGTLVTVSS
# control antibody MDX25F7, sequence (VL): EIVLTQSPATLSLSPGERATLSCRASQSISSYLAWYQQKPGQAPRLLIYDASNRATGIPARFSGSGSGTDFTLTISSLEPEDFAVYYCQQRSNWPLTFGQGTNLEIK
substance,measurement,setting,value
BMS-986016 (antibody),Percentage of Lag3 positive cells,[1],10.1%
same,Percentage of Lag3 positive cells,[2],18.6%
DP47 (human isotype control) (antibody),Percentage of Lag3 positive cells,[1],2.5%
same,Percentage of Lag3 positive cells,[2],9.19%
control antibody MDX25F7,"EC50 of restoration of the NFAT luciferase signal (NFAT Lag3 reporter assay: Lag3+ Jurkat, Raji cells, SED)",[3],1.29 µg/mL
same,"IC50 for near-complete reduction of luciferase activity (modified NFAT Lag3 reporter assay, Lag3+ Jurkat cells alone)",[3],0.033 µg/mL
same,Percentage of Lag3 positive cells,[1],11.3%
same,Percentage of Lag3 positive cells,[2],22.1%
same,LAG3 positive cells (%),[4],48.2%
same,Signal intensity (Geo Mean),[4],1560 Geo Mean

# Source: patent publication US20200354457A1
